In experiment [1] the target is N-terminal FLAG-tagged fusion protein including most of the extracellular region of human IL-13Rα1 (human) (UniProt P78552). Kind of experiment: BIACORE, receptor ECR immobilized on CM5 chip, mAb in solution. (In SPR one partner is held on a chip, and binding of the other changes the refractive index at the surface.)
Experiment [2] has as its target T1, cynomolgus IL-13Rα1.ECR, N-terminal FLAG-tagged fusion protein (cynomolgus macaque).
T1 sequence: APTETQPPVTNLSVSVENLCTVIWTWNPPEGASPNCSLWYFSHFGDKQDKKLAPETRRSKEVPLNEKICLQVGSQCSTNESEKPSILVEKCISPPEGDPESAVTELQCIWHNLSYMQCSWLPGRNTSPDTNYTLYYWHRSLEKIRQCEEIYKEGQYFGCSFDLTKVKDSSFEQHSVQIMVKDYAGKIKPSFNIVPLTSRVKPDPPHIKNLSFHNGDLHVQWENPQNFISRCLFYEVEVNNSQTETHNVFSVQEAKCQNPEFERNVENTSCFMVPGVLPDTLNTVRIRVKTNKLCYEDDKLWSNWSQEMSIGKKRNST
The description is as above.

Kd data for one molecule are collected here from US20110052597A1.

B1: murine antibody 1D9 reported in WO 03/080675 (ECACC deposit 03032101) (antibody, from another filing, V domains shown)
VH: EVKLVESGGGLVKPGGSLKLSCAASGFTFSGYGMSWVRQTPEKRLEWVATISGLGGYTYYPDSVKGRFTISRDNAKNTLYLQMSSLRSDDTAFYYCARRFYGDYVGAMDYWGQGTSVTVSS
VL: DILMTQAAFSNPVTLGTSASISCRSSKSLLHSNGITYLYWYLQKPGQSPQLLIYQMSNLASGVPDRFSCSGSGTDFTLSISRVEAEDVGFYYCAQNLELPFTFGSGTKLEIE
B1: the Kd in experiment [1] was determined as 0.207 nM; in experiment [2], 0.247 nM.

A word on the Kd: it is the free concentration of one partner at which half of the binding sites on the other are occupied at equilibrium, for simple one-to-one binding. A high value points to a looser complex.
